Measured values published in article PMC8228455, “Redox Regulation of the Quorum-sensing Transcription Factor AgrA by Coenzyme A”.

Target: T1, AgrA (6xHis-SaAgrA) (Staphylococcus aureus, UniProt Q5HEG2 1-238)
T1 sequence: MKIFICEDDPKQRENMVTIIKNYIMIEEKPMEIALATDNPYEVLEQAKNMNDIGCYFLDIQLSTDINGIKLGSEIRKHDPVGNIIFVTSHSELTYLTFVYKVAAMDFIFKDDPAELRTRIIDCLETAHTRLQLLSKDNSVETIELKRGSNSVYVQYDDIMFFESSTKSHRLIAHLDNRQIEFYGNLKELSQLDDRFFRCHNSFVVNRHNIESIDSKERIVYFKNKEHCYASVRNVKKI
Test: SPR; non-CoAlated; ka 5.75e3 1/Ms, kd 1.01e-2 1/s; SPR (Biacore 2000, SA chip, ~500 RU DNA): 20 mM HEPES pH 7.6, 250 mM KCl, 10% glycerol; 30 uL/min; temperature not stated; 1:1 Langmuir fit
Conditions: protein: recombinant; tags: 6xHis; chain copies: 2; label: 5' biotin (immobilized on SA chip); blunt

B1: P2 promoter (dsDNA)
DNA 1: TAACAGTTAAGTATTTATTTCCTACAGTTAGGCA
DNA 2: TGCCTAACTGTAGGAAATAAATACTTAACTGTTA
Question: With B1 as the binder, how does the Kd read?
Answer: Its Kd is 1750 ± 580 nM.
